Experimental data: publication PMC7814660 (Nature, 2020)

Assays:
[1] = molecular target: the molecule itself; assay: cryo-EM structure
[2] = cryo-EM structure superimposition of subunits; settings: glycan lost; control: wild type
[3] = whole-cell patch clamp, CBX-sensitive current density, +80 mV; settings: glycan lost; control: wild type
[4] = molecular target: the molecule itself; assay: cryo-EM structure; remark: listed apart in the source

B1: caspase 7-cleaved human Pannexin 1 (ΔCTT-hsPANX1) (domain or fragment, UniProt Q96RD7 1-379, looked up)
chain: MAIAQLATEYVFSDFLLKEPTEPKFKGLRLELAVDKMVTCIAVGLPLLLISLAFAQEISIGTQISCFSPSSFSWRQAAFVDSYCWAAVQQKNSLQSESGNLPLWLHKFFPYILLLFAILLYLPPLFWRFAAAPHICSDLKFIMEELDKVYNRAIKAAKSARDLDMRDGACSVPGVTENLGQSLWEVSESHFKYPIVEQYLKTKKNSNNLIIKYISCRLLTLIIILLACIYLGYYFSLSSLSDEFVCSIKSGILRNDSTVPDQFQCKLIAVGIFQLLSVINLVVYVLLAPVVVYTLFVPFRQKTDVLKVYEILPTFDVLHFKSEGYNDLSLYNLFLEENISEVKSYKCLKVLENIKSSGQGIDPMLLLTNLGMIKMDVVD
binding result [1]: binds

B2: Pannexin 1 (hsPANX1): N255A (protein)
parent chain: MAIAQLATEYVFSDFLLKEPTEPKFKGLRLELAVDKMVTCIAVGLPLLLISLAFAQEISIGTQISCFSPSSFSWRQAAFVDSYCWAAVQQKNSLQSESGNLPLWLHKFFPYILLLFAILLYLPPLFWRFAAAPHICSDLKFIMEELDKVYNRAIKAAKSARDLDMRDGACSVPGVTENLGQSLWEVSESHFKYPIVEQYLKTKKNSNNLIIKYISCRLLTLIIILLACIYLGYYFSLSSLSDEFVCSIKSGILRNDSTVPDQFQCKLIAVGIFQLLSVINLVVYVLLAPVVVYTLFVPFRQKTDVLKVYEILPTFDVLHFKSEGYNDLSLYNLFLEENISEVKSYKCLKVLENIKSSGQGIDPMLLLTNLGMIKMDVVDGKTPMSAEMREEQGNQTAELQGMNIDSETKANNGEKNARQRLLDSSC
structure_or_conformation [2]: changes
other: channel current [3]: changes

B3: wild type human Pannexin 1 (wt-hsPANX1) (natural protein, UniProt Q96RD7 1-426, looked up)
chain: MAIAQLATEYVFSDFLLKEPTEPKFKGLRLELAVDKMVTCIAVGLPLLLISLAFAQEISIGTQISCFSPSSFSWRQAAFVDSYCWAAVQQKNSLQSESGNLPLWLHKFFPYILLLFAILLYLPPLFWRFAAAPHICSDLKFIMEELDKVYNRAIKAAKSARDLDMRDGACSVPGVTENLGQSLWEVSESHFKYPIVEQYLKTKKNSNNLIIKYISCRLLTLIIILLACIYLGYYFSLSSLSDEFVCSIKSGILRNDSTVPDQFQCKLIAVGIFQLLSVINLVVYVLLAPVVVYTLFVPFRQKTDVLKVYEILPTFDVLHFKSEGYNDLSLYNLFLEENISEVKSYKCLKVLENIKSSGQGIDPMLLLTNLGMIKMDVVDGKTPMSAEMREEQGNQTAELQGMNIDSETKANNGEKNARQRLLDSSC
modifications: N-glycosylated at N255 (N-acetylglucosamine modelled)
stoichiometry N [1]: 7

B4: glycosylation-deficient mutant N255A of human Pannexin 1 (N255A-hsPANX1) (natural protein, UniProt Q96RD7 1-426, looked up)
chain: MAIAQLATEYVFSDFLLKEPTEPKFKGLRLELAVDKMVTCIAVGLPLLLISLAFAQEISIGTQISCFSPSSFSWRQAAFVDSYCWAAVQQKNSLQSESGNLPLWLHKFFPYILLLFAILLYLPPLFWRFAAAPHICSDLKFIMEELDKVYNRAIKAAKSARDLDMRDGACSVPGVTENLGQSLWEVSESHFKYPIVEQYLKTKKNSNNLIIKYISCRLLTLIIILLACIYLGYYFSLSSLSDEFVCSIKSGILRADSTVPDQFQCKLIAVGIFQLLSVINLVVYVLLAPVVVYTLFVPFRQKTDVLKVYEILPTFDVLHFKSEGYNDLSLYNLFLEENISEVKSYKCLKVLENIKSSGQGIDPMLLLTNLGMIKMDVVDGKTPMSAEMREEQGNQTAELQGMNIDSETKANNGEKNARQRLLDSSC
ratio of gap junctions to hemichannels [4]: ~0.2 gap junctions : hemichannels
